One block for each compound: values may come before it. Bridge positions count the residues as written; N and C are the ends. Square brackets hold non-standard residues; d marks the D form. Ends that are not written are not given here. Peptide text beside a SMILES is read from it. Ahx = NCCCCCC(=O)O
Experiments:
PSA [1] = target: T1, PSA (Homo sapiens, UniProt P07288); test: Enzyme activity of PSA with chromogenic substrate S-2586; format: biochemical; set-up: PSA was purified from human seminal fluid as described previously (3); from tissue; host or cells: human seminal fluid; details: for effect of derivatization or labeling on PSA binding activity, read as effect on PSA enzyme activity (in words): PSA (0.33 mM / 0.33 μM as printed); for effect of derivatization or labeling on PSA binding activity, read as effect on PSA enzyme activity (in words) / effect on the enzyme activity of PSA (in words): S-2586; for effect on the enzyme activity of PSA (in words): synthetic peptides in 100-fold molar excess
Description: The enzyme activity of PSA was studied in the presence of peptides alone or together with Zn^2+ by using the chymotrypsin substrate S-2586 (MeO-Suc-Arg-Pro-Tyr-pNA) (Chromogenix, Mölndal, Sweden). […] PSA (333 nM) was incubated with a 1-100-fold molar excess of GST-peptide or 100-fold excess of synthetic peptide in TBS buffer, pH 7.8 containing 0.5 g/L BSA for 1 h at 22° C. The effect of Zn^2+ on the enzyme activity of PSA was studied by including 1-200 μM of ZnCl2 in the reaction buffer. The combined effect of peptides and Zn2+ on the enzyme activity of PSA was studied by incubating PSA (333 nM) with peptide (333 nM) in the buffer containing 1-200 μM Zn^2+ for 1 h. After addition of substrate to a final concentration 0.2 mM, the absorbance was monitored at 5-min intervals for 2 h at 405 nm on a Labsystems Multiskan MCC/340 photometer (Labsystems, Helsinki, Finland). As a control, the effect of wild type GST on the enzyme activity of PSA was tested.
In the experiments, PSA (0.33 μM) was incubated with increasing concentrations of GST-C-4 (0-100-fold molar excess) for 1 h, after which the chromogenic substrate S-2586 was added and enzyme activity was monitored by measuring the absorbance at 405 nm. Data represent mean values from duplicate wells ±SE.
PSA (0.33 μM) was incubated with chemically synthesized peptides (100-fold molar excess) for 1 h, after which the chromogenic substrate S-2586 was added and enzyme activity was monitored by measuring the absorbance at 405 nm.
Because zinc is known to inhibit the enzyme activity of PSA, we further characterized the effect of GST-peptides on the enzyme activity of PSA by assessing the combined effect of peptides and Zn^2+. […] The effect of GST-C-4 and Zn^2+ on enzyme activity was determined by incubating PSA (0.33 μM) with the same molar concentration of GST-C-4 and various concentrations of Zn^2+. The reaction was monitored by measuring absorbance at 405 nm after addition of the chromogenic substrate S-2586. […] Data represent mean values from duplicate wells ±SE.
(§1) Data represent mean values from duplicate wells ±SE.
As control the enzyme activity of PSA alone was measured.
as §1
20 μg of the peptide was iodinated by the Iodogen method. After iodination the peptide was purified by using C18 Sep-Pak column.

PSA [2] = target: T1, PSA; test: Inhibition of GST-peptide binding to PSA by chemically synthesized peptides; set-up: PSA was purified from human seminal fluid as described previously (3); from tissue; details: synthetic peptide GACVAYCIEHHCWTCGA in 20-fold molar excess
Description: Peptides A1 and C4 were synthesized by standard solid phase Merrifield peptide synthesis using fmoc-chemistry. The peptides were assayed for binding with PSA by studying the ability of the synthetic peptide to inhibit the binding of the corresponding GST peptide with PSA. Synthetic peptide (0-333 nM) and the corresponding GST peptide (167 nM) were incubated with PSA captured by MAb 5E4 for 1 h. After this, the wells were washed, after which Eu^3+-labeled anti GST antibody was added. After further incubation and washing the bound fluorescence was measured as described above.
PSA had been captured by anti-PSA MAb in the microtitration wells. The binding was measured by IFMA.

PSA [3] = target: T1, PSA; test: Proteolytic cleavage of IGF-BP-3 by PSA, IGF-BP-3 IFMA; format: biochemical; set-up: PSA was purified from human seminal fluid as described previously (3); from tissue; host or cells: human seminal fluid; details: PSA 5 μg/mL, 100-fold molar excess of synthetic peptide, IGF-BP-3 70 ng/mL, 16 h at 37° C.; PSA alone 30%
Description: The extent of the cleavage of the substrate was quantitated by monitoring the decrease in IGF-BP-3 immunoreactivity due to proteolytic cleavage of it. PSA (5 μg/mL) was incubated with IGF-BP-3 (70 ng/mL) for 16 h at 37° C. with 100-fold molar excess of peptides to PSA and measured for IGF-BP3 immunoreactivity by IFMA as described (33). As control, the peptide was also added to the reaction mixture containing PSA and IGF-BP3 just before starting the immunoassay to quantify the possible interference of the peptide in the IFMA for IGF-BP-3.
In the experiments, PSA (5 μg/mL) in TBS buffer, pH 7.8 alone or with 100-fold molar excess of peptide was incubated with IGF-BP-3 (70 ng/mL) for 16 h at 37° C., after which the concentration of intact IGF-BP-3 was determined by IFMA.

PSA [4] = target: T1, PSA; test: GST-peptide IFMA: binding of GST-peptides to PSA captured by MAb 5E4; set-up: PSA was purified from human seminal fluid as described previously (3); from tissue; host or cells: human seminal fluid; details: GST fusion proteins
Description: After washing the binding of GST-peptide was quantified by IFMA using an Eu-labelled anti GST antibody as tracer. Data represent mean values from duplicate wells ±standard error (SE).
The solid phase antibodies used in the IFMAs were coated onto microtitration wells at a concentration of 5 μg/mL in TBS for 16 h at 22° C., the solution was discarded and the wells were saturated with 10 g/L bovine serum albumin in TBS for 3 h at 22° C. The antibodies used as tracers were labeled with a Eu^3+ chelate as described previously (26). The assay buffer was 50 mM Tris-HCL, pH 7.7, 150 mM NaCl, 33.3 μM bovine serum albumin, 1 μM bovine globulin.
The binding of individual phage clones to PSA was tested by IFMA (phage IFMA). In the phage IFMA, about 30 ng of PSA was added to MAb 5E4 coated wells for 1 h. After washing (Buffer: 150 mM NaCl, 7.7 mM NaN3, 0.2 g/L Tween 20), 15 μL of phage and 200 μl assay buffer was added. After incubation for 1 h, the wells were washed and filled with 200 μl of assay buffer containing 50 ng europium-labeled anti phage monoclonal antibody recognizing the M13 coat protein of the phage. After incubation for 60 min, the wells were washed 4 times, and enhancement solution (EG&G-Wallac) was added. The fluorescence was quantified with a 1234 DELFIA Research fluorometer (EG&G-Wallac). Binding of GST-peptide to PSA was determined by an IFMA (GST-peptide IFMA) similar to the one for phage peptides except that Eu^3+-labeled antibody to GST was used. Various amounts of GST-peptide or wild type GST were added to wells containing captured PSA in 200 μL of assay buffer and incubated for 1 h. To test the effect of Zn^2+ on the binding between GST-peptide and PSA, various concentrations of Zn^2+ (1-200 μM) were added to the buffer in the incubation step of GST-peptide and PSA. In competition experiments, GST-peptide (167 nM) or wild type GST were first incubated with increasing amounts of PSA (0-333 nM) in 0.5% BSA-TBS buffer for 60 min, then added to wells containing PSA captured by MAb 5E4. After incubation for 1 h the wells were washed and Eu^3+-labeled anti GST antibody was added. After further incubation and washing the bound fluorescence was measured as described above. When assessing the binding of the GST-peptides to other proteinases, including chymotrypsin, cathepsin G, trypsin, and kallikrein, these proteinases were captured by their specific antibodies coated to the microtitration well. Recombinant hK2 was captured by MAb 5E4, which is known to bind hK2 (24). For assessing the binding of the GST-peptides with complexes of PSA, including PSA-ACT and PSA-α1-protease inhibitor (PSA-API) (28), the complexes were captured by antibodies against ACT and API, respectively. After capturing the various proteinases or PSA complexes, GST-peptide was added and binding was monitored as described above for the GST-peptide IFMA.

PSA [5] = target: T1, PSA; test: PSA activity measurements with modified peptides, substrate S-2586 (Example 5); format: biochemical; set-up: PSA was purified from human seminal fluid as described previously (3); from tissue; host or cells: human seminal fluid; key to activity of modified peptide (active / inactive): PSA-peptide/PSA ratio above 1.1 was interpreted to be active; below 1.1 as inactive; details: for activity of modified peptide (active / inactive): from PSA-peptide/PSA ratio; for effect of modification on the activity of the peptide (in words): compared with parent A-1, B-2 or C-4
Description: PSA activity measurements: The effect of different peptides on the activity of PSA was studied by using chymotrypsin substrate S-2586 (MeO-Suc-Arg-Pro-Tyr-pNA) (Chromogenix, Mölndal, Sweden). 77 pmoles (2 μg) of PSA, substrate and 10 μmoles of different peptides were incubated in Tris-buffer (10 mM Tris and 150 mM NaCl at pH 7.8) with 0.2 mM concentration of the substrate at room temperature. PSA reaction without any peptide was used as basic level control. Reaction was measured after 60 minutes incubation at […] using Multiscan RC photometer (Labsystems, Finland). The effect of the peptides was calculated as a ratio from the OD value of PSA-peptide complex to PSA alone after 60 minutes incubation.

T1 sequence (P07288 25-261): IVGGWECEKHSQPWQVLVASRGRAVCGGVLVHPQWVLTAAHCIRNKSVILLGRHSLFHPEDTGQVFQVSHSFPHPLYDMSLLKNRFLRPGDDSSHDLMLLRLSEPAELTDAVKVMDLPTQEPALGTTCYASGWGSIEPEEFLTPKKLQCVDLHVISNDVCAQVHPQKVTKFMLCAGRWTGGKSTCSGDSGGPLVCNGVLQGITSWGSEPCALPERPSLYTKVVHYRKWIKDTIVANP

Compound: 1251-labeled C4: C4-peptide (CVAYCIEHHCWTC) iodinated by the Iodogen method (not fully specified (residue 4, bridges); cysteine pairing not given here)
effect of derivatization or labeling on PSA binding activity, read as effect on PSA enzyme activity (in words) (PSA [1]; 30-fold molar excess): almost completely destroyed its binding activity

Compound: CC[C@H](C)[C@@H]1NC(=O)[C@@H]2CSSC[C@H](NC(=O)[C@H](Cc3c[nH]cn3)NC(=O)[C@H](Cc3c[nH]cn3)NC(=O)[C@H](CCC(=O)O)NC1=O)C(=O)N[C@@H](Cc1c[nH]c3ccccc13)C(=O)N[C@@H]([C@@H](C)O)C(=O)N[C@H](C(=O)O)CSSC[C@H](N)C(=O)N[C@@H](C(C)C)C(=O)N[C@@H](C)C(=O)N[C@@H](Cc1ccc(O)cc1)C(=O)N2 [Peptide C-4] (H-CVAYCIEHHCWTC-OH; disulfide 1-13, 5-10; N-terminus and C-terminus assumed)
inhibition of the binding of the corresponding GST-peptide to PSA (PSA [2]): about 70%
cleavage of IGF-BP-3 by PSA in the presence of peptide (PSA [3]): about 70%

Compound: CLSTCAQSCRISC [Peptide D-1]
binding to PSA in GST-peptide IFMA (in words) (PSA [4]): did not show significant binding

activity of modified peptide (active / inactive) (PSA [5]): inactive
Compound: CVAYAIQHHC (disulfide 1-10 (inferred)) [Peptide C-4-4]

Compound: CVAYCIEHHCATC [Peptide C-4-6]
activity of modified peptide (active / inactive) (PSA [5]): inactive

Compound: CVAYCIQHHCWTC [Peptide C-4-3]
effect of modification on the activity of the peptide (in words) (PSA [5]): did not affect
activity of modified peptide (active / inactive) (PSA [5]): active

effect of modification on the activity of the peptide (in words) (PSA [5]): activity remained
Compound: CVFAHNYNALVC (disulfide 1-12 (inferred)) [Peptide B-2-3]

effect of modification on the activity of the peptide (in words) (PSA [5]): did not affect
Compound: CVFAHNYNYLVC (disulfide 1-12 (inferred)) [Peptide B-2-2]

effect of modification on the activity of the peptide (in words) (PSA [5]): did not affect
Compound: CVFTSNYAFC (disulfide 1-10 (inferred)) [Peptide A-1-4]

effect of modification on the activity of the peptide (in words) (PSA [5]): did not affect
Compound: CVFTSNYAYC (disulfide 1-10 (inferred)) [Peptide A-1-2]

effect of modification on the activity of the peptide (in words) (PSA [5]): did not affect
Compound: CVFTSNYNYC (disulfide 1-10 (inferred)) [Peptide A-1-3]

Compound: Eu-labelled C4-peptide: C4 peptide labelled with Eu-chelate, C18 fractions 26-28 (CVAYCIEHHCWTC; disulfide 1-13, 5-10; also: Eu-chelate label, site not given here)
effect of Eu-labelled peptide fractions on enzyme activity of PSA (PSA [1]; PSA 0.33 μM, 100 μL of C18 fractions 26-28): enhanced the enzyme activity of PSA strongly

Compound: SKSKSKS—aca-CVAYCIEHHCWTC (SKSKSKS[Ahx]CVAYCIEHHCWTC; not fully specified (bridges); printed as SKSKSKS—aca-CVAYCIEHHCWTC; cysteine pairing not given here) [SKSKSKS (SEQ ID NO:47)-tailed C4]
effect of derivatization or labeling on PSA binding activity, read as effect on PSA enzyme activity (in words) (PSA [1]; 30-fold molar excess): did not affect the binding activity

Compound: Tc99m-labeled C4: reduced C4-peptide labeled with 99mTc between thiol-sulfurs (HDP method) (CVAYCIEHHCWTC; also: 99mTc complexed between reduced thiol sulfurs (HDP method))
reduction of binding by technetium labeling (PSA [1]; PSA 0.33 μM, 30-fold molar excess, compared with unlabelled C4): about 50%

binding to PSA in GST-peptide IFMA (in words) (PSA [4]): did not bind
Compound: Wild type GST: wild type glutathione S-transferase without inserted peptide, control [reference compound]
effect on the enzyme activity of PSA (in words) (PSA [1]): did not affect
effect on the enzyme activity of PSA (in words) (PSA [1]; listed as wild type GST): no effect

From patent US7414023B2, “Peptide ligands for prostate specific antigen” (Licentia Ltd., priority 2000, dated 2008)
